What was measured:
Experiment in all cases: cell-based or functional assay
human Sirt2 (human) = human Sirt2 (human) (UniProt Q8IXJ6)
human Sirt5 (human) = human Sirt5 (human) (UniProt Q9NXA8)
human Sirt3 (human) = human Sirt3 (human) (UniProt Q9NTG7)
human Sirt1 (human) = human Sirt1 (human) (UniProt Q96EB6)
human Sirt1 (human), sequence (Q96EB6 whole entry): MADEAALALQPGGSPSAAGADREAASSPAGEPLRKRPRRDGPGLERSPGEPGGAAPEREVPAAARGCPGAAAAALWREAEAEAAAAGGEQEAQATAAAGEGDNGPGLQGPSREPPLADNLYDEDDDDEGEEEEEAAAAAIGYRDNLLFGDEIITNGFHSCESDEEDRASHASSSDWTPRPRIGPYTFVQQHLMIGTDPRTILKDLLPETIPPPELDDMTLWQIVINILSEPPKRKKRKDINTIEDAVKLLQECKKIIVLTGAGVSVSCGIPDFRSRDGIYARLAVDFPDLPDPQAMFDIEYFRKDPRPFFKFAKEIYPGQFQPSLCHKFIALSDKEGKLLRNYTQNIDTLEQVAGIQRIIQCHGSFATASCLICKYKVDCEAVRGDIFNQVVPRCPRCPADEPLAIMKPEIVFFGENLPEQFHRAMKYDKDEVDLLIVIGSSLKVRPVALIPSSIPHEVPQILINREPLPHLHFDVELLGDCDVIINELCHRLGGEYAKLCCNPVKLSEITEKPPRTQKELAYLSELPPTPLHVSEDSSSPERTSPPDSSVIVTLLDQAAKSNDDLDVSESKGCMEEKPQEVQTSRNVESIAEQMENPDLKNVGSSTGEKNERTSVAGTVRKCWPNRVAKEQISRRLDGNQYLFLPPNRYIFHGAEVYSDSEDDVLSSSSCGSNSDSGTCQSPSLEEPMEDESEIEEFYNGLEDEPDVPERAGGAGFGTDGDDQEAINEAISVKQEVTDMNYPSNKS

human Sirt5 (human), sequence (Q9NXA8 whole entry): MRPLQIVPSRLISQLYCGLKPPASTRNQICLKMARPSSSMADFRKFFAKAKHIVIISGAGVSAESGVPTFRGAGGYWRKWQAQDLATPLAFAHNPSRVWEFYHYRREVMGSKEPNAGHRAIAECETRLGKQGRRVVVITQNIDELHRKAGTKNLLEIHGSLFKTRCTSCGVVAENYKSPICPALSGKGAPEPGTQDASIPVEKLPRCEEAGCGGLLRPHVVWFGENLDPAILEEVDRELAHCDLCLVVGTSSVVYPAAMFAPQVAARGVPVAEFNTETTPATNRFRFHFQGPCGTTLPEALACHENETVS
human Sirt3 (human), sequence (Q9NTG7 102-399 limits assumed): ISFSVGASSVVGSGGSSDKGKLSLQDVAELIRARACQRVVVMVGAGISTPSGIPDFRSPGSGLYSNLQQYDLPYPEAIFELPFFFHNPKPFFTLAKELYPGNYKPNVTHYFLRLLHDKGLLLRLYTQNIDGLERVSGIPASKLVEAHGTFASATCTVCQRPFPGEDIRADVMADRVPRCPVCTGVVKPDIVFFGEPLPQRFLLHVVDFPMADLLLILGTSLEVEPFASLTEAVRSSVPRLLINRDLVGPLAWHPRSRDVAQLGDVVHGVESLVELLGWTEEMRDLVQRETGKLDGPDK
human Sirt2 (human), sequence (Q8IXJ6 whole entry): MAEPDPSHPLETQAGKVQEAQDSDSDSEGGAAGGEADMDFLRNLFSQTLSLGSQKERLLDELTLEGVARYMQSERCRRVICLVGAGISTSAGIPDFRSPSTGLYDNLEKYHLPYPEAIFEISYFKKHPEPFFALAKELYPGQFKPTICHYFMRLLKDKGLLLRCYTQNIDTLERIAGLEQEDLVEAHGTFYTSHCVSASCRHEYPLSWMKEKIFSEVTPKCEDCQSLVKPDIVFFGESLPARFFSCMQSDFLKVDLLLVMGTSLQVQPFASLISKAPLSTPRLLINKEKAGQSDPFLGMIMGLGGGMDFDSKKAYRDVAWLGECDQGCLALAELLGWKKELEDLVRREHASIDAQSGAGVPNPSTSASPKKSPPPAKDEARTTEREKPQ

- IC50 (µM), inhibition of sirtuin deacylase activity (human Sirt2 (human)): 2 µM
- IC50 (µM), inhibition of sirtuin deacylase activity (human Sirt5 (human)): > 100 µM
- IC50 (µM), inhibition of sirtuin deacylase activity (human Sirt3 (human)): 2 µM
- IC50 (µM), inhibition of sirtuin deacylase activity (human Sirt1 (human)): 1 µM
Substance: H3K9 thioacetyl peptide (H3K9 TAc)

From patent US20150057236A1
